These results are taken from publication PMC10654658, “The structural and functional investigation into an unusual nitrile synthase” (Nature Communications, 2023).

The target in the experiment is AetD nitrile synthase (Aetokthonos hydrillicola). Briefly: SEC; Superdex 200 10/300 GL; 100 uL of 10 mg/mL AetD in 25 mM Tris-HCl pH 7.5, 150 mM NaCl; flow rate 0.2 mL/min; mass estimated from protein markers.

The stoichiometry N is a count of units in the complex or per binding partner. “AetD nitrile synthase (from UniProt A0A861B387 1-239) (enzyme)”: the stoichiometry N is 2.
